Usually Kd stands for the constant that tells how readily two partners part at equilibrium.

Assay [1] has as its target West Nile virus strain USA99b (strain 385-99), whole virus (West Nile virus strain 385-99 (USA99b)). The experiment in a line: cell-based or functional assay.
Assay [2] shares this target. The experiment in a line: ELISA on irradiated WNV; IgG1 at 0.630 µg/ml.
For assay [3] the target is unchanged. Kind of assay: ELISA on irradiated WNV; IgG1 at 5.000 µg/ml. A general note: An ELISA detects its analyte on a solid surface through an enzyme-linked reagent.
For assay [4] the target is unchanged. Kind of assay: ELISA on irradiated WNV; IgG1 at 1.250 µg/ml.
For assay [5] the target is unchanged. Kind of assay: ELISA on irradiated WNV; IgG1 at 0.078 µg/ml.
Assay [6] shares this target. Kind of assay: ELISA on irradiated WNV; IgG1 at 0.000 µg/ml (no antibody).
Assay [7] shares this target. The experiment in a line: ELISA on irradiated WNV; IgG1 at 0.039 µg/ml.
Assay [8] shares this target. Kind of assay: ELISA on irradiated WNV; IgG1 at 0.160 µg/ml (printed 0.1.60).
For assay [9] the target is unchanged. The experiment in a line: ELISA on irradiated WNV; IgG1 at 20.000 µg/ml.
Assay [10] shares this target. Kind of assay: ELISA on irradiated WNV; IgG1 at 0.310 µg/ml.
Assay [11] has the same target.
Assay [12] shares this target. The experiment in a line: ELISA on irradiated WNV; IgG1 at 2.500 µg/ml.
Assay [13] has the same target. Kind of assay: ELISA on irradiated WNV; IgG1 at 10.000 µg/ml.
Assay [14] addresses West Nile virus TUN97 (strain paH001) (West Nile virus strain paH001). Kind of assay: cell-based or functional assay.
Assay [15] addresses West Nile virus SEN90 (strain ArD-76104) (West Nile virus strain ArD-76104). Kind of assay: cell-based or functional assay.
Assay [16] deals with West Nile virus CAR82 (strain ArB3573/82) (West Nile virus strain ArB3573/82). The experiment in a line: cell-based or functional assay.
In assay [17] the target is West Nile virus MAD78 (strain DakAnMg798) (West Nile virus strain DakAnMg798). Kind of assay: cell-based or functional assay.
In assay [18] the target is West Nile virus strain USA99b (strain 385-99), whole virus (West Nile virus strain 385-99 (USA99b)). The experiment in a line: cell-based or functional assay. This is another data set of the same source.
The target of assay [19] is West Nile virus FRA00 (strain PaAn001) (West Nile virus strain PaAn001). Kind of assay: cell-based or functional assay.
Assay [20] concerns the target West Nile virus strain USA99b (strain 385-99), whole virus (West Nile virus strain 385-99 (USA99b)). Kind of assay: ELISA on irradiated WNV; IgG1 supernatant diluted 1:5.
For assay [21] the target is unchanged. Kind of assay: ELISA on irradiated WNV; IgG1 supernatant diluted 1:125 (printed 1.125).
The target is the same in assay [22]. Kind of assay: ELISA on irradiated WNV; IgG1 supernatant diluted 1:25.
The target is the same in assay [23]. The source holds these as a separate data set.

Like-named read-outs stand apart in the source and are kept apart here.

B1: CR4361 (antibody, V domains shown)
VH: EVQLVQSGAEVKKPGESLKISCKASGFSFSTYWIGWVRQMPGKGLEWMGIIYPADSDTRYSPSFQGQVTISADKSISTAYLQWSSLKASDTAMYYCARLRGPYYDFWNGYRETHDAFNVWGQGTMVTVSS
VL: DVVMTQSPDSLAVSLGERATINCKSSQNILDNSDNKNFLAWYQQKPGQPPKLLIYWASARESGVPDRFSGSGSGTDFTLTISSLQAEDVALYYCQQYYNTPITFGQGTRLEIKR
In [1], B1 registered a PRNT50 of 2.03 µg/mL and a PRNT90 above 100 µg/mL.

B2: CR4374 (antibody, V domains shown)
VH: QITLKESGPTLVKPTQTLTLTCTFSGFSLSTSGVGVGWIRQPPGKALEWLAVIYWNDDKLYRPSLKSRLTITKDTSKNQVVLTMTKMDPVDTATYYCAHRHRYYDISGYYRLFSDAFDIWGQGTMVTVSS
VL: QSVLTQPPSVSGAPGQRVTISCTGSSSNIGAGYDVHWYQQLPGTAPKLLIYGNSNRPSGVPDRFSGSKSGTSASLAITGLQAEDEADYYCQSYDSSLSGSVFGGGTKLTVLG
In the case of B2, the PRNT50 in assay [1] worked out at 0.18 µg/mL; in assay [14] it was 0.03; in assay [15], 0.29; in assay [16], 0.14; in [17], 0.12; in assay [18], 0.17. In addition, the PRNT50 in [19] is 0.11. For the same molecule, the PRNT90 in [1] came to 0.95 µg/mL; in [14], 0.22; in [15] it was 3.92; in assay [16], 2.9; in assay [17], 4.12; in assay [18] it was 0.82. In assay [19], this molecule had a PRNT90 of 1.36. For the same molecule, the OD 492nm in [2] was found to be 1.45 OD 492nm; in [3], 1.65 OD 492nm; in assay [4], 1.5 OD 492nm; in assay [5], 0.729 OD 492nm; in [6], 0.003 OD 492nm; in [7], 0.458 OD 492nm. Further, the OD 492nm was found to be 0.997 OD 492nm in assay [8]; 1.69 OD 492nm in [9]; 1.24 OD 492nm in [10]; 1.58 OD 492nm in assay [12]; 1.72 OD 492nm in assay [13]; 2.32 OD 492nm in assay [20]. Also, the OD 492nm in assay [21] stood at 2.12 OD 492nm; in assay [22], 2.27 OD 492nm. Further, in assay [11], the dissociation constant Kd came to 56 nM.

B3: CR5085 (antibody, V domains shown)
VH: QITLKESGPTLVKPTQTLTLTCTFSGFSLSTSGVGVGWIRQPPGKALEWLAVIYWNDDKLYRPSLKSRLTITKDTSKNQVVLTMTKMDPVDTATYYCAHRHRYYDISGYYRLFSDAFDIWGQGTMVTVSS
VL: QSVVTQPPSVSGAPGQRVTISCTGSSSNIGAGYDVHWYQQLPGTAPKLLIYGNSNRPSGVPDRFSGSKSGTSASLAITGLQAEDETDYYCQSYDSSLNGWVFGGGTKLTVLG
As to B3, in assay [1], the PRNT50 worked out at 0.015 µg/mL and the PRNT90 was determined as 0.077 µg/mL. In assay [23], this molecule displayed a Kd of 3.7 nM.

B4: CR5074 (antibody, V domains shown)
VH: QITLKESGPTLVKPTQTLTLTCTFSGFSLSTSGVGVGWIRQPPGKALEWLAVIYWNDDKLYRPSLKSRLTITKDTSKNQVVLTMTKMDPVDTATYYCAHRHRYYDISGYYRLFSDAFDIWGQGTMVTVSS
VL: QSVLTQPPSVSGAPGQRVTISCTGSSSNIGTGYDVHWYQQLPGTAPKLLIYADTNRPSGVPDRFSGSKSGTSASLAITGVQAEDEADYYCQSYDTSLTGWVFGGGTKVTVLG
On to B4, for which, in assay [1], the PRNT50 was 0.013 µg/mL and the PRNT90 was 0.067 µg/mL. For the same molecule, the dissociation constant (Kd) in [23] amounted to 3.9 nM.

B5: CR5088 (antibody, V domains shown)
VH: QITLKESGPTLVKPTQTLTLTCTFSGFSLSTSGVGVGWIRQPPGKALEWLAVIYWNDDKLYRPSLKSRLTITKDTSKNQVVLTMTKMDPVDTATYYCAHRHRYYDISGYYRLFSDAFDIWGQGTMVTVSS
VL: QSVVTQPPSVSGAPGQRITISCTGSSSNIGAGYDVHWYQQLPGTAPKFLIYGNSNRPSGVPDRFSGSKSGTSASLAITGLQAEDEADYYCQSYDSSLSGWVFGGGTKLTVLG
In assay [1], B5 came in with a PRNT50 of 0.017 µg/mL and a PRNT90 of 0.087 µg/mL. For the same molecule, the Kd in assay [23] amounted to 1.7 nM.

B6: CR5080 (antibody, V domains shown)
VH: QITLKESGPTLVKPTQTLTLTCTFSGFSLSTSGVGVGWIRQPPGKALEWLAVIYWNDDKLYRPSLKSRLTITKDTSKNQVVLTMTKMDPVDTATYYCAHRHRYYDISGYYRLFSDAFDIWGQGTMVTVSS
VL: QSVLTQPPSVSGAPGQRVTISCTGSSSNIGAGYDVHWYQQLPGTAPKLLIYGNSNRPSGVPDRFSGSKSGTSASLAITGLQAEDEADYYCQSYDSSLSGWAFGGGTKLTVLG
In the case of B6, in assay [1], the PRNT50 was determined as 0.016 µg/mL and the PRNT90 was 0.08 µg/mL. This molecule also returned a Kd in assay [23] of 2.7 nM.

B7: CR4353 (antibody, V domains shown)
VH: QVQLVESGGGVVQPGRSLRLSCAASGFTFSNYAMHWVRQAPGKGLEWVAVISYDGGNKYYADSVKGRFTMSRDNSKNTLYLQMNSLRAEDTAVYYCARDFWSGYSMVDSYYYYMDVWGQGTTVTVSS
VL: ETTLTQSPGTLSLSPGERATLSCRASQSVSNTFLAWYQQKPGQAPRLLIYGASSRATGIPDRFSGSGSGTDFTLTISRLEPEDFAAYYCQQYGSSLTFGPGTKVDIKR
In the case of B7, in assay [1], the PRNT50 was 0.026 µg/mL. The same molecule gave a PRNT90 in assay [1] of 36.4 µg/mL. Also, the OD 492nm was found to be 1.33 OD 492nm in assay [2]; 1.55 OD 492nm in assay [3]; 1.42 OD 492nm in [4]; 0.734 OD 492nm in assay [5]; 0.003 OD 492nm in assay [6]; 0.595 OD 492nm in [7]. The OD 492nm in assay [8] is 1.07 OD 492nm; in [10], 1.17 OD 492nm; in assay [12] it was 1.43 OD 492nm; in [13], 1.57 OD 492nm. Moreover, in [11], the Kd was found to be 6.5 nM.
